The values that follow come from PMC3189932, “Viral Double-Strand RNA-Binding Proteins Can Enhance Innate Immune Signaling by Toll-Like Receptor 3”.

For data set [1], the target named is H-cp149 (Hepatitis B virus, UniProt P03147 1-149). Nature of the data set: UV crosslinking; 4 mM Mg2+; no shift; 50 mM Tris-HCl pH 7.5, 4 mM MgCl2, 50 mM NaCl, 1 mM DTT; 400 ng protein, 1 pmol RNA; UV 1200 mJ 3 min then SDS-PAGE (crosslinking); nondenaturing stacked 5/20%. Particulars: protein: recombinant; chain copies: 2; label: Cy5; hairpin, 11-bp stem, GNRA tetraloop.

The target in data set [2] is R-cp (Ross River virus, UniProt P13890 1-270). Nature of the data set: UV crosslinking; 4 mM Mg2+; 50 mM Tris-HCl pH 7.5, 4 mM MgCl2, 50 mM NaCl, 1 mM DTT; 400 ng protein, 1 pmol RNA; UV 1200 mJ 3 min then SDS-PAGE (crosslinking); nondenaturing stacked 5/20%. As to conditions: protein: recombinant; label: Cy5; hairpin, 11-bp stem, GNRA tetraloop.
Data set [3] deals with H-cp183 (Hepatitis B virus, UniProt P03147 1-183). The description is as above. As to conditions: protein: recombinant; chain copies: 2; label: Cy5; hairpin, 11-bp stem, GNRA tetraloop.
Data set [4] addresses T1, B-cp (Brome mosaic virus, UniProt P03602 1-189).
T1 sequence: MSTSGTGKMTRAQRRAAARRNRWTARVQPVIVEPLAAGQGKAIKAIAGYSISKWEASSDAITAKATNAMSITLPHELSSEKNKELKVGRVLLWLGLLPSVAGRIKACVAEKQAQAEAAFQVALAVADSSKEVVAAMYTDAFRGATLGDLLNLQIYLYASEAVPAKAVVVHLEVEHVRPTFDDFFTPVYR
The data set is described as above. As to conditions: protein: native; label: Cy5; hairpin, 11-bp stem, GNRA tetraloop.

H-cp183, sequence (P03147 whole entry): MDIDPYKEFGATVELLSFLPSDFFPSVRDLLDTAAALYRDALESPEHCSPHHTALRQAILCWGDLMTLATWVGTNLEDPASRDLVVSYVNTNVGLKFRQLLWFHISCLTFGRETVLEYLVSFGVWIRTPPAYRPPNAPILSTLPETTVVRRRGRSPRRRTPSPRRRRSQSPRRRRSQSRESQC
H-cp149, sequence (P03147 1-149): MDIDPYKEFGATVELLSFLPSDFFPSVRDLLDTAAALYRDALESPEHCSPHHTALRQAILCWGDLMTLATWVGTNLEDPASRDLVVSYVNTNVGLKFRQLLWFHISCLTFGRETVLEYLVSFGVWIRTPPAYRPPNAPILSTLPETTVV
R-cp, sequence (P13890 1-270): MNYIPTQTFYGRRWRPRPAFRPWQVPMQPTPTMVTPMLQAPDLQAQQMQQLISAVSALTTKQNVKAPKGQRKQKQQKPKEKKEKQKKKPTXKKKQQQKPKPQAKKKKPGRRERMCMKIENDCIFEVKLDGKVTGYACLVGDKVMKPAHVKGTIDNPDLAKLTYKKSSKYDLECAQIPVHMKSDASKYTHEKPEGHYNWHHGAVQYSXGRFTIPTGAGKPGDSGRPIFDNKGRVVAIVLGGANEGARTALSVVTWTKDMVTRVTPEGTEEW

B1: SL26 (structured_RNA)
RNA: CCAAGUCAUUCGCAAGAGUGGCUUGG
Consider B1, for which the binding result in data set [1] is “no binding”; in data set [2], “binds”; in data set [3], “binds”; in data set [4] it was “binds”.
